Assays:
[1] = molecular target: T1, human EFNA4 expressed on cells (human, UniProt P52798 26-170); test: flow cytometry, Z138 mantle cell lymphoma cells (endogenous EFNA4), 10 µg/ml antibody
T1 sequence: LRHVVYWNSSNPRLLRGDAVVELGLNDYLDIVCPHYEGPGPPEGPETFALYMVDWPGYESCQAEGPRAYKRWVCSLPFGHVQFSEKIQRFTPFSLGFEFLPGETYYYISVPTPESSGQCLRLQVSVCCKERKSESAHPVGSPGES

[2] = molecular target: T1, human EFNA4 expressed on cells; test: flow cytometry, MX-1 breast cells (endogenous EFNA4), 10 µg/ml antibody
[3] = molecular target: T1, human EFNA4 expressed on cells; test: flow cytometry, MEC1 B-CLL cells (endogenous EFNA4), 10 µg/ml antibody
[4] = molecular target: T1, human EFNA4 expressed on cells; test: flow cytometry, HCC202 breast cells (endogenous EFNA4), 10 µg/ml antibody
[5] = molecular target: T2, monomeric human Ephrin-A4 (human), P52798; test: SPR (BIAcore 2000), Eph receptor captured via anti-human antibody capture kit, monomeric human Ephrin-A4 12-400 nM as analyte, steady state affinity fit; conditions: remark: other sources report otherwise
T2 chain: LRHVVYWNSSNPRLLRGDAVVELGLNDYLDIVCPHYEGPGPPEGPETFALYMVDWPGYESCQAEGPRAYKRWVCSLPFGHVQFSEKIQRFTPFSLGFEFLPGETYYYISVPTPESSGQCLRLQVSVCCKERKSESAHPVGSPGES

[6] = molecular target: T3, human EFNA4 antigen (ephrin-A4 ligand) (human, UniProt P52798 26-170); test: Hu Ag Affinity (Humanized mAb); method not stated
T3 construct: also called Hu Ag
T3 sequence: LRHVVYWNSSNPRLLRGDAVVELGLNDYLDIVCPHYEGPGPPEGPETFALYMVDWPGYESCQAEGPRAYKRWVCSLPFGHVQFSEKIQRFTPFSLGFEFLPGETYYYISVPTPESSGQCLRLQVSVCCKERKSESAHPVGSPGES

[7] = molecular target: T1, human EFNA4 expressed on cells; test: cell-based or functional assay
Ephrin-A4-huFc (R&D) = molecular target: T4, Ephrin-A4-huFc (R&D) (human, UniProt P52798 26-170); test: direct ELISA, Ephrin-A4-huFc coated on the plate, biotin-labeled huE22, streptavidin-HRP, OD450
T4 construct: bought reagent; also called Ephrin-A4 (EFNA4); EFNA4; not shown: human Fc
T4 sequence: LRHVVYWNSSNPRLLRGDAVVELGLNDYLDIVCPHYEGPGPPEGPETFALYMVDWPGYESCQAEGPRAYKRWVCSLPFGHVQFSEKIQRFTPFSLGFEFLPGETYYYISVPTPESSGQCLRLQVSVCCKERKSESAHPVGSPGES

[8] = molecular target: T5, recombinant cynomolgus monkey EFNA4 extracellular domain fused to a histidine tag (cynomolgus monkey, UniProt A0A2K5U3S7 84-228); test: SPR (BIAcore 2000), recombinant EFNA4 ECD-His
T5 construct: extracellular domain; not shown: histidine tag
T5 sequence: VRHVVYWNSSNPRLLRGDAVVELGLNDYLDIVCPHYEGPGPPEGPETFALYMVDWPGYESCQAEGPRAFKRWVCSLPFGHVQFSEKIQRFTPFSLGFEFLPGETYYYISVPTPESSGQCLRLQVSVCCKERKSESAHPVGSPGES

[9] = molecular target: T6, recombinant rat EFNA4 extracellular domain fused to a histidine tag (rat, UniProt D3ZEN1 26-173); test: SPR (BIAcore 2000), recombinant EFNA4 ECD-His
T6 construct: extracellular domain; also called rat antigen; not shown: histidine tag
T6 sequence: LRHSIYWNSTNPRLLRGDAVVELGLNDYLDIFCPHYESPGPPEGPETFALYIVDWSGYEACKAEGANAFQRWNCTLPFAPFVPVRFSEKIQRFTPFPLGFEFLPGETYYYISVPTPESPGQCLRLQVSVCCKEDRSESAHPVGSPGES

[10] = molecular target: T7, recombinant human EFNA4 extracellular domain fused to a histidine tag (human, UniProt P52798 26-170); test: SPR (BIAcore 2000), recombinant EFNA4 ECD-His
T7 construct: also called hEFNA4-ECD-His; not shown: histidine tag
T7 sequence: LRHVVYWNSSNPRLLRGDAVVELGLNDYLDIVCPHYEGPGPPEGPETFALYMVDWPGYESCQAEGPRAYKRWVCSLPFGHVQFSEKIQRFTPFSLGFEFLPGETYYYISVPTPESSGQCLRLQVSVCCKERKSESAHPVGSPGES

Ephrin-A3-huFc (R&D) [11] = molecular target: T8, Ephrin-A3-huFc (R&D) (UniProt P52797 23-214, limits assumed); test: direct ELISA, Ephrin-A3-huFc coated on the plate, biotin-labeled huE22, streptavidin-HRP, OD450
T8 construct: also called Ephrin-A3 (EFNA3); EFNA3; not shown: human Fc
T8 sequence (looked up): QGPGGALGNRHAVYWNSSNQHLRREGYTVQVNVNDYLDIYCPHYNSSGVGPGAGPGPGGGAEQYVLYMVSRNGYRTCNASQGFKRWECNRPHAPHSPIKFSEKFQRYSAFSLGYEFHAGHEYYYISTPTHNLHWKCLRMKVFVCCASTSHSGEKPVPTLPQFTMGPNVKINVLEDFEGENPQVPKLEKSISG

Ephrin-A5-huFc (R&D) = molecular target: T9, Ephrin-A5-huFc (R&D) (UniProt P52803 21-203); test: direct ELISA, Ephrin-A5-huFc coated on the plate, biotin-labeled huE22, streptavidin-HRP, OD450
T9 construct: also called EFNA5; not shown: human Fc
T9 sequence (looked up): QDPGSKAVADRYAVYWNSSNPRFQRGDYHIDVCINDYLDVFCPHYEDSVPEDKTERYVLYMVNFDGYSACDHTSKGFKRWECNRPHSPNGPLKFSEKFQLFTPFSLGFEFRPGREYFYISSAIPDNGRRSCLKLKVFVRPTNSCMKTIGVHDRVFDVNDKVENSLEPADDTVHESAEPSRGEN

[12] = molecular target: T1, human EFNA4 expressed on cells; test: cell-based or functional assay; remark: listed apart in the source
Ephrin-A1-His (R&D) [13] = molecular target: T10, Ephrin-A1-His (R&D) (UniProt P20827 19-182); test: direct ELISA, Ephrin-A1-His coated on the plate, biotin-labeled huE22, streptavidin-HRP, OD450
T10 construct: also called Ephrin-A1 (EFNA1); EFNA1; not shown: His tag
T10 sequence (looked up): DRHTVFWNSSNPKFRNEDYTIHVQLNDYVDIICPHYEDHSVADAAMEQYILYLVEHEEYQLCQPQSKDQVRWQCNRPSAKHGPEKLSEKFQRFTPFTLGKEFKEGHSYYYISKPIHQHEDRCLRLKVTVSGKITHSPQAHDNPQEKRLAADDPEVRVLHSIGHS

[14] = molecular target: T1, human EFNA4 expressed on cells; test: cell-based or functional assay; remark: listed apart in the source
Ephrin-A3-huFc (R&D) [15] = molecular target: T8, Ephrin-A3-huFc (R&D); test: direct ELISA, Ephrin-A3-huFc coated on the plate, biotin-labeled huE47, streptavidin-HRP, OD450
Protocol: (§1) Antibody binding was determined by direct ELISA with Ephrin-A1-His, Ephrin-A3-huFc, Ephrin-A4-huFc and Ephrin-A5-huFc (all from R&D) coated on BioOne Microlon (Greiner) plates in PBS overnight at 4° C.

Ephrin-A1-His (R&D) [16] = molecular target: T10, Ephrin-A1-His (R&D); test: direct ELISA, Ephrin-A1-His coated on the plate, biotin-labeled huE47, streptavidin-HRP, OD450
Protocol: as §1

## Non-binding control IgG (antibody)
[1]
  Mean Channel Fluorescent (MCF): 7.4
[2]
  Mean Channel Fluorescent (MCF): 3.6
[3]
  Mean Channel Fluorescent (MCF): 7.2
[4]
  Mean Channel Fluorescent (MCF): 15.6

B1: recombinant EphB3 receptor (commercially available), P54753 34-559 (receptor, UniProt P54753 34-559, looked up)
chain: GCRALEETLMDTKWVTSELAWTSHPESGWEEVSGYDEAMNPIRTYQVCNVRESSQNNWLRTGFIWRRDVQRVYVELKFTVRDCNSIPNIPGSCKETFNLFYYEADSDVASASSPFWMENPYVKVDTIAPDESFSRLDAGRVNTKVRSFGPLSKAGFYLAFQDQGACMSLISVRAFYKKCASTTAGFALFPETLTGAEPTSLVIAPGTCIPNAVEVSVPLKLYCNGDGEWMVPVGACTCATGHEPAAKESQCRPCPPGSYKAKQGEGPCLPCPPNSRTTSPAASICTCHNNFYRADSDSADSACTTVPSPPRGVISNVNETSLILEWSEPRDLGGRDDLLYNVICKKCHGAGGASACSRCDDNVEFVPRQLGLTERRVHISHLLAHTRYTFEVQAVNGVSGKSPLPPRYAAVNITTNQAAPSEVPTLRLHSSSGSSLTLSWAPPERPNGVILDYEMKYFEKSEGIASTVTSQMNSVQLDGLRPDARYVVQVRARTVAGYGQYSRPAEFETTSERGSGAQQLQEQLPL
[5]
  Kd: 108 nM

B2: recombinant EphA1 receptor (commercially available), P21709 26-547 (receptor, UniProt P21709 26-547, looked up)
chain: KEVTLMDTSKAQGELGWLLDPPKDGWSEQQQILNGTPLYMYQDCPMQGRRDTDHWLRSNWIYRGEEASRVHVELQFTVRDCKSFPGGAGPLGCKETFNLLYMESDQDVGIQLRRPLFQKVTTVAADQSFTIRDLVSGSVKLNVERCSLGRLTRRGLYLAFHNPGACVALVSVRVFYQRCPETLNGLAQFPDTLPGPAGLVEVAGTCLPHARASPRPSGAPRMHCSPDGEWLVPVGRCHCEPGYEEGGSGEACVACPSGSYRMDMDTPHCLTCPQQSTAESEGATICTCESGHYRAPGEGPQVACTGPPSAPRNLSFSASGTQLSLRWEPPADTGGRQDVRYSVRCSQCQGTAQDGGPCQPCGVGVHFSPGARGLTTPAVHVNGLEPYANYTFNVEAQNGVSGLGSSGHASTSVSISMGHAESLSGLSLRLVKKEPRQLELTWAGSRPRSPGANLTYELHVLNQDEERYQMVLEPRVLLTELQPDTTYIVRVRMLTPLGPGPFSPDHEFRTSPPVSRGLTGGE
[5]
  Kd: 414 nM

B3: humanized anti-EFNA4 antibody huE22 (antibody, human IgG1, kappa, V domains shown)
VH: QVQLVQSGAEVKKPGASVKVSCKASGYTFTGYYIHWVRQAPGQGLEWMGWIYPGNFNTKYNERFKGRVTMTTDTSTSTAYMELRSLRSDDTAVYYCAREDGSPYYAMDYWGQGTSVTVSS
VL: DIVMTQTPLSLSVTPGQPASISCRSSQSLVHSNGNTFLYWYLQKPGQSPQLLIYRVSNRFSGVPDRFSGSGSGTDFTLKISRVEAEDVGVYYCFQATHVPWTFGGGTKVEIKR
notes: human IgG1 / kappa; also called huE22 mAb; unconjugated huE22
[6]
  Kd: 3.8 nM
[7]
  Saporin-mediated cytotoxicity IC50 (MTS viability), HEK293T parent cells, huE22 plus saporin-conjugated anti-human Fab: 174 ng/mL
  Saporin-mediated cytotoxicity IC50 (MTS viability), HEK293T-EFNA4 cells, huE22 plus saporin-conjugated anti-human Fab: 3 ng/mL
Ephrin-A4-huFc (R&D)
  EC50 (read off the curve): ~4 ng/mL
[8]
  Kd: 2.1 nM
  koff: 0.0078 s⁻¹
  kon: 3.8e+06 M⁻¹ s⁻¹
[9]
  binding result: no binding (tested: 400 nM antigen)
[10]
  Kd: 1.7 nM
  koff: 0.0033 s⁻¹
  kon: 1.9e+06 M⁻¹ s⁻¹
Ephrin-A3-huFc (R&D) [11]
  binding result: no binding (tested: 1000 ng/ml)
Ephrin-A5-huFc (R&D)
  binding result: no binding (tested: 1000 ng/ml)
[12]
  specificity of saporin-mediated cytotoxicity, HEK293T-EFNA4 over HEK293T parental cells: ~60 fold
Ephrin-A1-His (R&D) [13]
  binding result: no binding (tested: 1000 ng/ml)

B4: huE22-AcBut-CM antibody-drug conjugate (antibody, V domains shown)
VH: QVQLVQSGAEVKKPGASVKVSCKASGYTFTGYYIHWVRQAPGQGLEWMGWIYPGNFNTKYNERFKGRVTMTTDTSTSTAYMELRSLRSDDTAVYYCAREDGSPYYAMDYWGQGTSVTVSS
VL: DIVMTQTPLSLSVTPGQPASISCRSSQSLVHSNGNTFLYWYLQKPGQSPQLLIYRVSNRFSGVPDRFSGSGSGTDFTLKISRVEAEDVGVYYCFQATHVPWTFGGGTKVEIKR
modifications: AcBut-N-acetyl-gamma-calicheamicin dimethyl hydrazide (AcBut-CM) conjugated via lysine residues (sites not given); average DAR about 3 to 5
notes: also called huE22-AcBut-CM ADC; huE22-ActBut-CM
[8]
  Kd: 2.7 nM
  koff: 0.011 s⁻¹
  kon: 4.2e+06 M⁻¹ s⁻¹
[9]
  binding result: no binding (tested: 400 nM antigen)
[10]
  Kd: 2.3 nM
  koff: 0.0061 s⁻¹
  kon: 2.6e+06 M⁻¹ s⁻¹
[14]
  Anti-EFNA4-AcBut-CM cytotoxicity IC50 (MTS viability, 96 h), HEK293T-EFNA4 cells: 1 ng/mL

B5: humanized anti-EFNA4 antibody huE15 (antibody, human IgG1, V domains shown)
VH: EVQLVESGGGLVKPGGSLRLSCAASGFTFSTYGMSWVRQAPGKGLEWVATISSGGTYTYYPDSVKGRFKISRDNAKNSLYLQMNSLRAEDTAVYYCTRHDPNDGYYFLFAYWGQGTLVTVSS
VL: EIVLTQSPGTLSLSPGERATLSCKASQSVGNNVAWYQQKPGQAPRLLIYYASNRYTGIPDRFSGSGSGTDFTLTISRLEPEDFAVYYCQQHYSSPLTFGAGTKLEIK
[6]
  Kd: 4.8 nM

B6: humanized anti-EFNA4 antibody huE47 (antibody, human IgG1, kappa, V domains shown)
VH: QVQLVQSGAEVKKPGASVKVSCKASGYTFTYFYMNWVRQAPGQGLEWVGQINPNNGGTAYAQKFQGRVTMTRDTSTSTVYMELSSLRSEDTAVYYCARWVGTHYFDYWGQGTTLTVSS
VL: EIVLTQSPATLSLSPGERATLSCRASQSVSSSSYTYIHWYQQKPGQAPRLLINFASNLESGIPARFSGSGSGTDFTLTISSLEPEDFAVYYCQHSWEIPPTFGGGTKLEIKR
notes: human IgG1 / kappa
[6]
  Kd: < 0.1 nM
Ephrin-A3-huFc (R&D) [15]
  binding result: no binding (tested: 1000 ng/ml)
Ephrin-A1-His (R&D) [16]
  binding result: no binding (tested: 1000 ng/ml)
